The source of these data is IntAct's records for PubMed 19276109.

B1: Protein ABSCISIC ACID-… 5 (Arabidopsis thaliana (Mouse-ear cress)), Q9SJN0 (parent)
chain: MVTRETKLTSEREVESSMAQARHNGGGGGENHPFTSLGRQSSIYSLTLDEFQHALCENGKNFGSMNMDEFLVSIWNAEENNNNQQQAAAAAGSHSVPANHNGFNNNNNNGGEGGVGVFSGGSRGNEDANNKRGIANESSLPRQGSLTLPAPLCRKTVDEVWSEIHRGGGSGNGGDSNGRSSSSNGQNNAQNGGETAARQPTFGEMTLEDFLVKAGVVREHPTNPKPNPNPNQNQNPSSVIPAAAQQQLYGVFQGTGDPSFPGQAMGVGDPSGYAKRTGGGGYQQAPPVQAGVCYGGGVGFGAGGQQMGMVGPLSPVSSDGLGHGQVDNIGGQYGVDMGGLRGRKRVVDGPVEKVVERRQRRMIKNRESAARSRARKQAYTVELEAELNQLKEENAQLKHALAELERKRKQQYFESLKSRAQPKLPKSNGRLRTLMRNPSCPL

Variants of B1 are the subject of the test. The note with it: with sumo1_arath SUMO1, P55852.
Sequence of sumo1_arath SUMO1, P55852 (P55852 whole entry): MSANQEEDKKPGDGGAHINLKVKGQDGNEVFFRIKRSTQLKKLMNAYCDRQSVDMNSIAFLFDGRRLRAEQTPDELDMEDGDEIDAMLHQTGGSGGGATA
Take K391R: the “effect of a mutation on the interaction” value is on record as “disrupting interaction”.
